B1: LINE1-mini (parent)
chain: GGCAGAGCUCAACACAGCGUGGCAAAGUGGCUGUGGCUAGACUGCC

Variants of: B1
Experiment: self-cleavage, relative activity (ratio to wild type); higher = more cleavage; in vitro, sequencing; the parent is a self-cleaving ribozyme

| Variant | self-cleavage |
| --- | --- |
| GGCAGAGCUCGACACAGCGUGGCAAAGUGGCUGUGACUAGACUGCC [A11G G36A] | 0.02 |
| GGCAGAGCUCGACACAGCGUGGCAAAGUGGCUGUGUCUAGACUGCC [A11G G36U] | 0.02 |
| GGCAGAGCUCGACACAGCGUGGCAAAGUGGCUGUGCCUAGACUGCC [A11G G36C] | 0.01 |
| GGCAGAGCUCGACACAGCGUGGCAAAGUGGCCGUGGCUAGACUGCC [A11G U32C] | 0.04 |
| GGCAGAGCUCGACACAGCGUGGCAAAGUGGCAGUGGCUAGACUGCC [A11G U32A] | 0.02 |
| GGCAGAGCUCGACACAGCGUGGCAAAGUGGCGGUGGCUAGACUGCC [A11G U32G] | 0.03 |
| GGCAGAGCUCGACACAGCGUGGCAAAGUGUCUGUGGCUAGACUGCC [A11G G30U] | 0.04 |
| GGCAGAGCUCGACACAGCGUGGCAAAGUGGCUGGGGCUAGACUGCC [A11G U34G] | 0.03 |
| GGCAGAGCUCGACACAGCGUGGCAAAGUGGCUGCGGCUAGACUGCC [A11G U34C] | 0.03 |
| GGCAGAGCUCGACACAGCGUGGCAAAGUGGCUGAGGCUAGACUGCC [A11G U34A] | 0.03 |
| GGCAGAGCUCUACUCAGCGUGGCAAAGUGGCUGUGGCUAGACUGCC [A11U A14U] | 0.08 |
| GGCAGAGCUCUACCCAGCGUGGCAAAGUGGCUGUGGCUAGACUGCC [A11U A14C] | 0.01 |
| GGCAGAGCUCUACGCAGCGUGGCAAAGUGGCUGUGGCUAGACUGCC [A11U A14G] | 0.03 |
| GGCAGAGCUCUACACAGCGUGGCAAUGUGGCUGUGGCUAGACUGCC [A11U A26U] | 0.12 |
| GGCAGAGCUCUACACAGCGUGGCAACGUGGCUGUGGCUAGACUGCC [A11U A26C] | 0.16 |
| GGCAGAGCUCUACACAGCGUGGCAAGGUGGCUGUGGCUAGACUGCC [A11U A26G] | 0.13 |
| GGCAGAGCUCGACACAGCGUGGCAAAGUGGCUGUGGCUACACUGCC [A11G G40C] | 0.02 |
| GGCAGAGCUCGACACAGCGUGGCAAAGUGGCUGUGGCUAAACUGCC [A11G G40A] | 0.03 |
| GGCAGAGCUCGACACAGCGUGGCAAAGUGGCUGUGGCUAUACUGCC [A11G G40U] | 0.03 |

| Variant | self-cleavage |
| --- | --- |
| GGCAGAGCUCUACACAGCGUGGCAAAGUGGCUGUGGCUCGACUGCC [A11U A39C] | 0.07 |
| GGCAGAGCUCUACACAGCGUGGCAAAGUGGCUGUGGCUGGACUGCC [A11U A39G] | 0.06 |
| GGCAGAGCUCUACACAGCGUGGCAAAGUGGCUGUGGCUUGACUGCC [A11U A39U] | 0.05 |
| GGCAGAGCUCGACACAGCGUGGCAAAGUGGCUUUGGCUAGACUGCC [A11G G33U] | 0.03 |
| GGCAGAGCUCGACACAGCGUGGCAAAGUGGCUCUGGCUAGACUGCC [A11G G33C] | 0.03 |
| GGCAGAGCUCGACACAGCGUGGCAAAGUGGCUAUGGCUAGACUGCC [A11G G33A] | 0.03 |
| GGCAGAGCUCGACACAGCGAGGCAAAGUGGCUGUGGCUAGACUGCC [A11G U20A] | 0.04 |
| GGCAGAGCUCGACACAGCGGGGCAAAGUGGCUGUGGCUAGACUGCC [A11G U20G] | 0.03 |
| GGCAGAGCUCGACACAGCGCGGCAAAGUGGCUGUGGCUAGACUGCC [A11G U20C] | 0.03 |
| GGCAGAGCUCGACACAGCGUGGCAAAGUGGCUGUGGCUAGACUCCC [A11G G44C] | 0.03 |
| GGCAGAGCUCGACACAGCGUGGCAAAGUGGCUGUGGCUAGACUACC [A11G G44A] | 0.03 |
| GGCAGAGCUCGACACAGCGUGGCAAAGUGGCUGUGGCUAGACUUCC [A11G G44U] | 0.01 |
| GGCAGAGCUCUACACGGCGUGGCAAAGUGGCUGUGGCUAGACUGCC [A11U A16G] | 0.04 |
| GGCAGAGCUCUACACCGCGUGGCAAAGUGGCUGUGGCUAGACUGCC [A11U A16C] | 0.02 |
| GGCAGAGCUCUACACUGCGUGGCAAAGUGGCUGUGGCUAGACUGCC [A11U A16U] | 0.03 |
| GGCAGAGCUCGACACAGCGUGGCAAAGUGGCUGUGGCUAGACAGCC [A11G U43A] | 0.01 |
| GGCAGAGCUCGACACAGCGUGGCAAAGUGGCUGUGGCUAGACCGCC [A11G U43C] | 0.02 |
| GGCAGAGCUCGACACAGCGUGGCAAAGUGGCUGUGGCUAGACGGCC [A11G U43G] | 0 |
| GGCAGAGCUCUACACAGCGUGGCGAAGUGGCUGUGGCUAGACUGCC [A11U A24G] | 0.15 |

| Variant | self-cleavage |
| --- | --- |
| GGCAGAGCUCUACACAGCGUGGCUAAGUGGCUGUGGCUAGACUGCC [A11U A24U] | 0.21 |
| GGCAGAGCUCUACACAGCGUGGCCAAGUGGCUGUGGCUAGACUGCC [A11U A24C] | 0.15 |
| GGCAGAGCUCUACACAGCGUGGCAAAGUGGCUGUGGCUAGACUGCC [A11U] | 0.15 |
| GGCAGAGCUCGACACAGCGUGGCAAAGUGGCUGUAGCUAGACUGCC [A11G G35A] | 0.05 |
| GGCAGAGCUCGACACAGCGUGGCAAAGUGGCUGUCGCUAGACUGCC [A11G G35C] | 0.02 |
| GGCAGAGCUCGACACAGCGUGGCAAAGUGGCUGUUGCUAGACUGCC [A11G G35U] | 0.03 |
| GGCAGAGCUCUACACAGCGUGGCACAGUGGCUGUGGCUAGACUGCC [A11U A25C] | 0.11 |
| GGCAGAGCUCUACACAGCGUGGCAUAGUGGCUGUGGCUAGACUGCC [A11U A25U] | 0.37 |
| GGCAGAGCUCUACACAGCGUGGCAGAGUGGCUGUGGCUAGACUGCC [A11U A25G] | 0.07 |
| GGCAGAGCUCUGCACAGCGUGGCAAAGUGGCUGUGGCUAGACUGCC [A11U A12G] | 0.03 |
| GGCAGAGCUCUCCACAGCGUGGCAAAGUGGCUGUGGCUAGACUGCC [A11U A12C] | 0.04 |
| GGCAGAGCUCUUCACAGCGUGGCAAAGUGGCUGUGGCUAGACUGCC [A11U A12U] | 0.07 |
| GGCAGAGCUCGACACAGCGUGGCAAAGGGGCUGUGGCUAGACUGCC [A11G U28G] | 0.02 |
| GGCAGAGCUCGACACAGCGUGGCAAAGCGGCUGUGGCUAGACUGCC [A11G U28C] | 0.03 |
| GGCAGAGCUCGACACAGCGUGGCAAAGAGGCUGUGGCUAGACUGCC [A11G U28A] | 0.03 |
| GGCAGAGCUCGACACAGCGUGGCAAAGUGGCUGUGGCAAGACUGCC [A11G U38A] | 0.02 |
| GGCAGAGCUCGACACAGCGUGGCAAAGUGGCUGUGGCGAGACUGCC [A11G U38G] | 0.02 |
| GGCAGAGCUCGACACAGCGUGGCAAAGUGGCUGUGGCCAGACUGCC [A11G U38C] | 0.03 |
